Source: PMC8131929 (The Journal of Biological Chemistry, 2021)

Biological target: RanQ69L(aa1-180)–GTP (UniProt P62826 1-180, Q69L)
Assay: pull-down

B1: His–Xpo 4 (exportin 4, Mus musculus) (natural protein)
chain: not shown
binding result: binds
